In the supplement of paper PMC9112550, “Optimization of the antimicrobial peptide Bac7 by deep mutational scanning” (BMC Biology, 2022):
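Also: peptides expressed intracellularly from a pBAD plasmid library in pooled LB shake-flask culture, induced with 0.3% L-arabinose, DNA abundance read by NGS, three biological replicates, DESeq2 with apeglm shrinkage.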

These sequences were tested on Escherichia coli TOP10 (assay: shrunken log2 fold change of peptide-encoding DNA abundance (4.5 h post-induction vs induction); higher = less antimicrobial activity (less host growth inhibition)). Conditions: time post-induction: 4.5 h; library: site-saturation at positions 5, 18, 19, 20.
In the case of RRIRRRPPRLPRPRPRPLSRPRP, the “shrunken log2 fold change” value is reported as 0.0601. RRIRCRPPRLPRPRPRPETEPRP was tested, and the “shrunken log2 fold change” value was -0.0921. In the case of RRIRERPPRLPRPRPRPTEYPRP, the “shrunken log2 fold change” value is reported as -0.123. With RRIRVRPPRLPRPRPRPLCQPRP the “shrunken log2 fold change” value was 0.258. For RRIRQRPPRLPRPRPRPYLAPRP, the “shrunken log2 fold change” value was -0.21. With RRIRMRPPRLPRPRPRPYSHPRP the “shrunken log2 fold change” value was -0.352. RRIRERPPRLPRPRPRPYQTPRP was tested, and the “shrunken log2 fold change” value was -0.135. RRIRDRPPRLPRPRPRPFSEPRP was tested, and the “shrunken log2 fold change” value was -0.0447. With RRIRGRPPRLPRPRPRPFDIPRP the “shrunken log2 fold change” value was 0.198. With RRIRNRPPRLPRPRPRPRHHPRP the “shrunken log2 fold change” value was -0.246. RRIRSRPPRLPRPRPRPYKGPRP was tested, and the “shrunken log2 fold change” value was -0.186. In the case of RRIRARPPRLPRPRPRPGKRPRP, the “shrunken log2 fold change” value is reported as 0.374. For RRIRWRPPRLPRPRPRPKTRPRP, the “shrunken log2 fold change” value was 0.654. For RRIRFRPPRLPRPRPRPDTGPRP, the “shrunken log2 fold change” value was -0.356. RRIRYRPPRLPRPRPRPLIKPRP was tested, and the “shrunken log2 fold change” value was -0.386. RRIRMRPPRLPRPRPRPPIWPRP was tested, and the “shrunken log2 fold change” value was 0.512. RRIRVRPPRLPRPRPRPKYMPRP was tested, and the “shrunken log2 fold change” value was -0.433. RRIRARPPRLPRPRPRPAGGPRP was tested, and the “shrunken log2 fold change” value was 0.678. In the case of RRIRERPPRLPRPRPRPHRHPRP, the “shrunken log2 fold change” value is reported as -0.18. In the case of RRIRQRPPRLPRPRPRPIFVPRP, the “shrunken log2 fold change” value is reported as -0.217. For RRIRKRPPRLPRPRPRPPESPRP, the “shrunken log2 fold change” value was 0.303. In the case of RRIRFRPPRLPRPRPRPREVPRP, the “shrunken log2 fold change” value is reported as 0.199. With RRIRPRPPRLPRPRPRPANMPRP the “shrunken log2 fold change” value was -0.219. In the case of RRIRYRPPRLPRPRPRPKWEPRP, the “shrunken log2 fold change” value is reported as -0.263. With RRIRMRPPRLPRPRPRPQLLPRP the “shrunken log2 fold change” value was 0.0491. For RRIRLRPPRLPRPRPRPTIDPRP, the “shrunken log2 fold change” value was -0.521. With RRIRGRPPRLPRPRPRPWFMPRP the “shrunken log2 fold change” value was -0.384. RRIRTRPPRLPRPRPRPERNPRP was tested, and the “shrunken log2 fold change” value was -0.201. With RRIRLRPPRLPRPRPRPGELPRP the “shrunken log2 fold change” value was 0.0243. In the case of RRIRRRPPRLPRPRPRPGVDPRP, the “shrunken log2 fold change” value is reported as 0.31. RRIRIRPPRLPRPRPRPILKPRP was tested, and the “shrunken log2 fold change” value was 0.134. In the case of RRIRDRPPRLPRPRPRPWTDPRP, the “shrunken log2 fold change” value is reported as 0.023. With RRIRNRPPRLPRPRPRPDWPPRP the “shrunken log2 fold change” value was 0.0862. In the case of RRIRKRPPRLPRPRPRPTQNPRP, the “shrunken log2 fold change” value is reported as 1.07. In the case of RRIRFRPPRLPRPRPRPGMNPRP, the “shrunken log2 fold change” value is reported as -0.147. RRIRLRPPRLPRPRPRPIWSPRP was tested, and the “shrunken log2 fold change” value was -0.256. RRIRYRPPRLPRPRPRPWFGPRP was tested, and the “shrunken log2 fold change” value was -0.0933. With RRIRDRPPRLPRPRPRPDGWPRP the “shrunken log2 fold change” value was 0.965. In the case of RRIRVRPPRLPRPRPRPCKYPRP, the “shrunken log2 fold change” value is reported as -0.725. In the case of RRIRIRPPRLPRPRPRPGEAPRP, the “shrunken log2 fold change” value is reported as -0.0281. With RRIRFRPPRLPRPRPRPRGEPRP the “shrunken log2 fold change” value was 0.125. In the case of RRIRYRPPRLPRPRPRPSWNPRP, the “shrunken log2 fold change” value is reported as -1.04. RRIRYRPPRLPRPRPRPYHAPRP was tested, and the “shrunken log2 fold change” value was -0.194. In the case of RRIRTRPPRLPRPRPRPQERPRP, the “shrunken log2 fold change” value is reported as 0.00298. RRIRQRPPRLPRPRPRPHQIPRP was tested, and the “shrunken log2 fold change” value was 0.0211. For RRIRKRPPRLPRPRPRPFISPRP, the “shrunken log2 fold change” value was -0.113. With RRIRWRPPRLPRPRPRPDEAPRP the “shrunken log2 fold change” value was 0.0325. With RRIRKRPPRLPRPRPRPYWEPRP the “shrunken log2 fold change” value was 0.0616. In the case of RRIRFRPPRLPRPRPRPTTEPRP, the “shrunken log2 fold change” value is reported as 0.108. In the case of RRIRQRPPRLPRPRPRPPWVPRP, the “shrunken log2 fold change” value is reported as 0.696. RRIRERPPRLPRPRPRPVNVPRP was tested, and the “shrunken log2 fold change” value was -0.531. RRIRHRPPRLPRPRPRPCQIPRP was tested, and the “shrunken log2 fold change” value was -0.0122. With RRIRKRPPRLPRPRPRPDFMPRP the “shrunken log2 fold change” value was 0.028. For RRIRCRPPRLPRPRPRPKHMPRP, the “shrunken log2 fold change” value was -0.25. With RRIRPRPPRLPRPRPRPPLAPRP the “shrunken log2 fold change” value was 0.513. In the case of RRIRIRPPRLPRPRPRPTDGPRP, the “shrunken log2 fold change” value is reported as -0.00546. RRIRFRPPRLPRPRPRPWAGPRP was tested, and the “shrunken log2 fold change” value was 0.116. RRIRHRPPRLPRPRPRPGGHPRP was tested, and the “shrunken log2 fold change” value was 0.125. With RRIRCRPPRLPRPRPRPIPNPRP the “shrunken log2 fold change” value was 0.0105. RRIRCRPPRLPRPRPRPSCWPRP was tested, and the “shrunken log2 fold change” value was 0.2. In the case of RRIRYRPPRLPRPRPRPCMNPRP, the “shrunken log2 fold change” value is reported as -0.0223. RRIRWRPPRLPRPRPRPKVHPRP was tested, and the “shrunken log2 fold change” value was -0.136. With RRIRCRPPRLPRPRPRPHIGPRP the “shrunken log2 fold change” value was 0.000633.
